{"source": "paper PMC10824877", "about": "“Assessment of bioactive peptides derived from laminin-111 as prospective breast cancer-targeting agents” (Amino Acids, 2024)", "key": {"[1]": {"test": "Radiochemical stability in serum", "format": "in vitro ADME", "conditions": "37 °C, up to 24 h", "experimental": "(§1) The radiochemical stability of the radiopeptides was evaluated in two distinct environments: in saline (n = 3), at room temperature and under refrigeration (4–8 °C), by a period of 48 h after the radiolabeling, and in serum (n = 5), at 37 °C, for up to 24 h after incubation. At predefined time intervals, aliquots were extracted and subjected to ascending chromatography, as previously detailed."}, "[2]": {"test": "Radiochemical stability in saline", "format": "physicochemical", "experimental": "as §1"}}, "note": "Entries after “also recorded” stand apart in the source; their conditions may differ. No end group written: not given here. *: point of attachment. 131I = iodine-131 radiolabel on tyrosine, [131I]*", "data": [{"substance": "[^131I]I-KAFDITYVRLKF: laminin-111 γ1 chain C16 peptide KAFDITYVRLKF radiolabeled with iodine-131 at the central tyrosine residue (KAFDITY(131I)VRLKF)", "values": [{"measurement": "radiochemical stability in serum", "setting": "[1]", "value": "unstable; also recorded: radiochemical instability within the first hour"}, {"measurement": "decrease of radiochemical purity", "setting": "[2]; after 24 h, room temperature or under refrigeration", "value": "approximately 50%"}, {"measurement": "radiochemical purity remaining", "setting": "[2]; both storage conditions, within the specified time interval", "value": "around 50%"}]}]}
